According to the DeepSol protein solubility set:

test: soluble on expression in E. coli; label from the status in PepcDB or PDB records

Sequence	soluble on expression in E. coli
MDEDVGLEATNYSRGDESRSEEQEKNVVRWRIVQQSTGPNPKPRHGHRAVVLKELIVIFGGGNEGMIDELHAYNTQKREWTAPQCCGDVPTPAAAFGAISLGNKIYRFGGMTEYGKYTNDLYELQSTRWEWRRLNPRVHSNGHLPCPRIGHSFVVSQKSQKAYVFGGLSNDLNDPKRNVPHYLDDLYVINLSGPQHLIWEKLNATGPGPISRESHTAVIYEKDSISRMVVYGGMNGVRLGDLWYLNLNTLHWTEIKFDDPRTGIPPMPRSLHSSVLIGDKMFVYGGWVPLLEHASTEQQTEKEWKCTSSLGCWNITEDRWVPLHLYCSDEDTIPRGRAGHCAAAVGDRMYIWSGRDGYRKAWSNQVCCRDMWLLDTILPEQPGKVQLGRAGFNSLEISWPIVQGASGYFLQIGFGDAKEQSVSPIKRATTSPRKQPSIVPPSQKETEQSPKKPQGTAPSIISTQGTTYTAPADPKPATDEGGLPQDLFEDTEKNETASPKRSNDAQSADSSTCEQKKTDESGLEEDSEKDQKPSDAGETDEMKEENGDDDLPWFDVGIIDKATINVTHYFNDRQQSLEKQLNDLIDHNAFKCVNDSVFTTEDKIPLINGQSYRFRVSAINGLGKGAWSETASCKTCVPGYPSAPSSIRITKSHEGAQLTWEPPSNTNISGKIIEYSVYLAVKNQSANSADSQLAFMRVYCGPQADCQVLQSNLGTAFVDQTNKPAIIFRIAARNEKGYGPATQVRWLQDQQKIPVRTNYPNNSGFIYQQHGGQQKRARFDHQ	not soluble
MAHHHHHHMEAFAITPLAEDDTTFVKDAQQFLAVIADMQREAEQRRCLLDDLRQKEAAAEMELEKCLAVREAVVARMAHTKAEGLELQSEYKALTTQQRAVEAEVLELRRQKSHWKKVLQEFQGSSSSSHLLGSGNTDGATVKSASSLDRALHAWSQLPHGSMFLKELKKTLTEFVAELAVNAGSNTNDNSNTTHNGTSTEYTTAFLDPSSVFPHLPPLSKVEEAIILLIPFSA	not soluble
MGSDKIHHHHHHVDDRPGTTGIRRTNPVMTDPKHRTEAPFDEQIIREYLIDNPDFFGRYPELLLAMRMSHTERGTVSLLERRQEMYRNRVAQLEEEITALMTQARRNEKIFRFNNDLQFKLLASAALGDVRQILSQALMSEFGFTHVRLITVHDVDSELSAIWSNRLARGHYFGRLTASESRRLFGSEVGSVALTRLSEHCGQVVFAIASQDPAHFHPEMDNLLLDQLRRILDHLLPRL	not soluble
MSLDDKATKPHDRLAQALAEDMAAVNALIRERMSSEHAPRIPEVTAHLIEAGGKRLRPMLTLAAARLVGYGGPFHVHLAATVEFIHTATLLHDDVVDESRQRRGRPTANLLWDNKSSVLVGDYLFARSFQLMTDTGNMRVMEILANASAVIAEGEVLQLTAAQNLATTEDIYLRVIRGKTAALFSAATEVGGIIGGAPEDQVQALFDYGDALGIAFQIVDDLLDYGGKSAEIGKNTGDDFRERKLTMPVIKAVALADEAERAFWKRVIEKGDQQDGDLEHAMALMTKHGTLEATRLAAIGWTDTARKALAKLPDHPLRQMLDDLADYVVERVREGHHHHHH	soluble
DPFEDLDALGSILEEKYGLLEAHVVFSPTPDYAGITHDLSRYGAEYMHETVKDGDIVGVSWGTTMYQIAQNMQPKQVKGVEVVQLKGGISHSRVNTYSAETIQLFAEAFQTMPRYLPLPVVFDNADVKRMVEKDRHIERIIEMGKQANIALFTVGTVRDEALLFRLGYFNEEEKALLKKQAVGDICSRFFDAKGNICSSAINDRTIGVELQDLRLKERSILVAGGSRKVSSIHGALTGKYANVLIIDQHTARALVNDL	not soluble
MPLNHYQQEVGPSLADTSPGKMPDVALLEGRYCSVEHLTVAEHYEDILDFYFTNQILSDWTYMYADPFESEEAVRQCLEDYEQSQNPYFFAIRDKASGKVLGTFSLMAITPKNRSVEMGRVILAPALQKTRAATEAQYLLMKYVFEDLNYRRYEWKCDKSQPPFCQCSHSFRVHL	not soluble
MGSDKIHHHHHHMKVELDVSELAVGMYVVEITQPKNKFQLAEQGWITKQQVIDGFKRKGIEKLLVDSSKRRPQPSEPAKVNQATMDKQAAQLTKTPGLFKQRLSQAKQLFNESKAIQRRLFDDAQAGVPLTLEPVRRVTDQSIEAIFDNPDALACVINIRHKDQYLLEHSVAVSVLMTIFACYLKIDKEIVSELAIGAFLHDVGKIMIPPSILDKPGRLTTEEFEVMKTHANHSIRIIENTPNISPLSLEVARLHHEKLNGKGYPFGVSAEAISRFGRMIAICDIFDALTANRCYKAGYPQVKAFSILRALGENNELDAELVDHFIKCMGVYPVGSLVQLESNRLAIVESHNHQDPIRPKVKPFYSLNPNHFEISANIDLAAMRDDIIVKNVRADDFDLDMDEIIEFLSHEG	not soluble
MNDEEKPCIENILSAAEELEKLGYEPVIIADASLRHEIDDKEQFRKLLEEGKFQQVPSGTSADHFILKMAEEEDAKILSNDVFRDYKDEFQDINSRRIPYTFREDKILIGTSGKPKKVKNILQKICNEALEHHHHHH	not soluble
MGSDKIHHHHHHMKLQQLEYFMAVSKYASFTLASQKLHTSQPYLSTQLKELERELGASLILRDKKHCRLSPAGEVVAKRTEMIFALIKEAQEEINELVTQGSTTTIRIGTNLIDIDKAFGEVLLLFNQSYPYVSIDFKYYYDLETALETDLIDIGIGIFLDTSIPLEKELIYTESYLLCVNKNHPLAHADSVTIDEIRSLPFAAYSDQVYEKKVFKRWERKINWENRQIVIELPSLHLVLDMVQREKACSILPYSLTDELNRRNLVGIPLEDSPERAIYLVQNNHHGHCEAHRYLFEQLRYLF	not soluble
MSWKFEEKSPIYAQIAQHVMMQIISQEIKSGDQLPTVREYAEIAGVNPNTMQRAFTELEREGMVYSQRTAGRFVTDDQKLIARKRRELAISELESFITNMTKMGFSHTEIIPVLTSFLKEDSQ	not soluble
MAHHHHHHMEGASHEAAEHTSASAMTRKERKKIEKSEKQAEELRQLSKKANAVNGDTDNPFSVTLETDQIAEGSRNITFNKVSVSVNGKTLFKDTTVKLSAGSRYGLMGPNGRGKSTILRLLASRELPVQSNLDLLLVEQEQEFTASELSAVDAVLQSHKKQNACADEAKALGAKAELSEAEMERLHFLEEELDIMGAAQADARARRILFGLGFPTEWHERPTSSFSGGWRKRIALASAVFIEPDVLMLDEPTNHLDLNAVIWLESYLTKAYSEMARRPKTLIVVSHDAGFLDEVCTHMVHVENYMLNYYRGSYSSFDEQLQQRHQELDKKYESVAKTIRDKKRNGMSNAQVEVWIKDQVNSGRLDPLFLEKRRDYTVNFPFPDPPELRDGCVCKLDSVSFNYPGGPVLFQNVSCALWTDSRITLCGPNGIGKSTLLNLMTGVLEPTAGYITLNRQVRIGRYNQHFVDKLPLEKTPVECIQALGIPEEDKARRLLGSFGLEGIVHKNQIATLSGGQKARVAFAAISAESPHFLLFDEPTNHLDVESIDALCTAIRNFKGGVLVVTHDARLIESTEMQIWVAGDKNVMPFNGSLDDYKNVVRAEFEKEEAMRLEERKQLLEHKTEARQLKQSGVADVTTALQEKKEKKQHEHAQGLDAFLTAAAKKKKPKKAKEES	soluble
MMSTPPQNTRPVFSVDGLWKVFGPKAERVPADPELAALSAAELSERTGCTAAVRDVSFDVHKGEVFVVMGLSGSGKSTLVRCLTRLIEPTAGTIAIDGEDVRAMDRTRLRELRRHRASMVFQHFGLLPHRTVLDNVAYGLEIQGLGKAERRERAAEVVAKVGLEGMEQRKPGQLSGGQQQRVGLARALAVDPEVLLFDEPFSALDPLIRRDMQEEVVRLHREEGRTMVFITHDLNEALRLGDRIALMRDGRVVQLGTPEEIVGSPADDYVREFVRDVPREQVMTVRTAMRAASAEEAGSGPAVAPDATVSEAIEAVARAGSPARVVDSGRCVGVVDSEALLDVVAGVGASGPAPAVTAVPPFEPSRDFGNAGAGAAEAAPGDVTGEEVALEHHHHHH	soluble
MSLTRHQRLFVWTVTHGFREYGVAQQKTHHNTMSPEAAIEWVVRQEPGIFIFKDLHPFISSPAVTRWLREAIASFKGTEKAIILMSPYQETPIELEKDVVVLDFALPDLVTLDGVLGQQLGKSRHALGEDSREKLLKAALGLTKDEAEKVYRKAYVKAGQLTEGEVEIVLSEKKQMIRRNEGHHHHHH	not soluble
KVLKIPREKIIEKGFTDPREYFASIEVDGGRPPKPGEFRDILVETVREVMGVEVVEAGLSKEEKIIWDRYKEMLTSSRFKMRRSTRLFKASMPPGTRYGFAQIKYRKLVQASVAVDSEGIIRAAMITGDFQLIPADADEEIVKAILGFKHSQYGEAADRVRRLVDERGIMIIGASAEEFIKPV	soluble
PVFENNNQRYYESLPFKQLKELKIACSQYGPTAPFTIAMIENLGTQALPPNDWKQTARACLSGGDYLLWKSEFFEQCARIADVNRQQGIQTSYEMLIGEGPYQATDTQLNFLPGAYAQISNAARQAWKRLPSLEHHHHHH	soluble
MSGSTHTTERGTGRAAEAAPPATDRFACYVYGIVPEDVEVSPGTVGVGEPAGQVTLVRHGEIAALVSPVDVDRPLGRASDLVAHERLLDGAAAEVPVLPFRFGAVLTSPEAVVEELLAPHHDQFAAALRQLEGKAQHVLKARYAERPVLLEILRENAEARRLRDRIRDLPEDATRTERIRLGELITQAIEAKREADTQAVLDRFASCTVAANVRDPSHERDAAHVAFLVEHAKADEFAEAVEELSDEWADRVEVRVLGPMAPYDFVVAEG	not soluble
MQILKVIGLLMEYPDELLWECKEDALALIRRDAPMLTDFTHNLLNAPLLDKQAEWCEVFDRGRTTSLLLFEHVHAESRDRGQAMVDLLAEYEKVGLQLDCRELPDYLPLYLEYLSVLPDDQAKEGLLNVAPILALLGGRLKQREAPWYALFDALLQLAGSSLSSDSVTKQVNSEERDDTRQALDAVWEEEQVKFIEDNATACDSSPLNQYQRRFSQDVAPQYVDISAGGGK	not soluble
MICYEYINDYIRKTIKKNEGFLAELEEFAKENHVPIVHPEVASLLRVIGLTLRPSRVLEVGTAIGYSAILFSTFLEPGGRIDTIDRYELMLEKARANVKKAGLQDVINIIEGDALEVLKCLEHKYDMIFLDAAKGQYPEFLPECLRLLRSGGLLISDNILYKGMVAKDELVVRRKKTIVKRLRNYLETICNTDELETSILPVGDGLAISFKK	not soluble
MHAGEAVQQLKKAFETVASFDFRDALSKASTPVTVVATNGPFGLAGLTCSAVCSVCDRPPTVLLCINRKSYAAGIIKSNGVLSVNWLAAGQAVISQTFAGVGSVPMEERFADKGWQTIATGAPYRMDAAVSFDCTIANIVDVGSHSVIFAEVVARNHAEECTPLIYHRRQYATTRSLAEHHHHHH	soluble
GMTTNTIMEQEARTAPQKIAEQLLANDAITESLGSVLREFKPKFVMIVGRGSSDHAGVFAKYLFEIEASIPTFAAAPSVASVYGKTLKLAGGLVIVISQSGRSPDILAQARMAKNAGAFCVALVNDETAPIKDIVDVVIPLRAGEEKAVAATKSYLATLSALLQVAAKWTQNESLVEAVNSLPQALQAAVDAEPQLRAGSLTDVKNLVVLGRGFGYAVSKEIALKLKEVCAIHAEAFSSAEFLHGPVTLVEKKLSILDVCIRDESYGSHVEQIANVKQRGANLIHLHQTSADIHPRIAPLALLQRFYIDVAAVAIALGINPDKPAGLKKVTQTL	soluble
